{"source": "patent US10072252B2", "about": "(priority 2013, dated 2018)", "molecules": {"B1": {"name": "SsoPox W263I: SEQ ID NO: 3 with substitution of tryptophan W in position 263 by isoleucine I (protein, listed as Sulfolobus solfataricus)", "chain": "MRIPLVGKDSIESKDIGFTLIHEHLRVFSEAVRQQWPHLYNEDEEFRNAVNEVKRAMQFGVKTIVDPTVMGLGRDIRFMEKVVKATGINLVAGTGIYIYIDLPFYFLNRSIDEIADLFIHDIKEGIQGTLNKAGFVKIAADEPGITKDVEKVIRAAAIANKETKVPIITHSNAHNNTGLEQQRILTEEGVDPGKILIGHLGDTDNIDYIKKIADKGSFIGLDRYGLDLFLPVDKRNETTLRLIKDGYSDKIMISHDYCCTIDIGTAKPEYKPKLAPRWSITLIFEDTIPFLKRNGVNEEVIATIFKENPKKFFS"}, "B2": {"name": "SsoPox: SsoPox enzyme tested for ecotoxicity; variant not specified (protein, UniProt Q97VT7 1-314, looked up)", "Aryldialkylphosphatase": "B1 chain with I263W"}}, "key": {"3-oxo-C12 AHL": {"system": "3-oxo-C12 AHL", "type": "cell-based, Pseudomonas aeruginosa"}, "[1]": {"type": "physicochemical", "conditions": "pH 8"}, "lasB transcription": {"system": "lasB transcription", "type": "cell-based, P. aeruginosa"}, "[2]": {"system": "P. aeruginosa PAO1 biofilm formation", "type": "cell-based"}, "P. aeruginosa PAO1": {"system": "P. aeruginosa PAO1", "conditions": "in vivo"}, "[3]": {"conditions": "rat, in vivo"}, "[4]": {"system": "sea urchins larvae (Paracentrotus lividus)", "conditions": "in vivo"}}, "note": "Substitutions are numbered along the chain they refer to. In names and notes the source's numbering stands.", "data": [{"molecule": "B1", "values": [{"measurement": "relative lactonase activity in screening (3-oxo-C12 AHL hydrolysis)", "setting": "3-oxo-C12 AHL", "value": "selected for a potential lactonase activity improvement"}, {"measurement": "melting temperature", "setting": "[1]", "value": "87.8±1.2", "unit": "°C"}, {"measurement": "half inhibition concentration ([C1/2]) of lasB transcription", "setting": "lasB transcription", "value": "around 0.5 μg/mL"}, {"measurement": "[C1/2] of inhibition of biofilm formation", "setting": "[2]", "value": "approximately 170 μg/mL"}, {"measurement": "mean time to death", "setting": "P. aeruginosa PAO1", "value": "37 ± 13", "unit": "h"}, {"measurement": "mortality rate", "setting": "P. aeruginosa PAO1", "value": 20, "unit": "%"}, {"measurement": "acute inflammatory reactions in the respiratory parenchyma", "setting": "[3]", "value": "no observable acute inflammatory reactions"}, {"measurement": "histological analysis of lungs", "setting": "[3]", "value": "normal lung parenchyma"}, {"measurement": "macroscopic aspect of lungs removed after treatment", "setting": "[3]", "value": "no macroscopic signs of injury"}, {"measurement": "spontaneous mortality", "setting": "[3]", "value": "no spontaneous mortality was observed"}, {"measurement": "tolerance of tracheal instillation", "setting": "[3]", "value": "well tolerated"}]}, {"molecule": "B2", "values": [{"measurement": "effects on viability and development", "setting": "[4]", "value": "no effects have been observed"}]}]}
